target: HLA-A*02:01 (Homo sapiens, UniProt P04439, D140Y/D185E/D98H/E176V/E277Q/G131W/G231S/I119V/I121R/I166T/I218V/L300P/L318F/N151K/N90K/P208A/P217A/Q86G/Q94H/R138H/R169H/T345S); assay: MHC binding assay (UV-ligand exchange, β2m ELISA, peptide exchange yield); conditions: binding to HLA-A*02:01
Excerpt: Candidate peptides for T cell based therapies according to the present invention were further tested for their MHC binding capacity (affinity). The individual peptide-MHC complexes were produced by UV-ligand exchange, where a UV-sensitive peptide is cleaved upon UV-irradiation, and exchanged with the peptide of interest as analyzed. Only peptide candidates that can effectively bind and stabilize the peptide-receptive MHC molecules prevent dissociation of the MHC complexes. To determine the yield of the exchange reaction, an ELISA was performed based on the detection of the light chain (β2m) of stabilized MHC complexes. The assay was performed as generally described in Rodenko et al. (Rodenko et al., 2006).
96 well MAXISorp plates (NUNC) were coated over night with 2 ug/ml streptavidin in PBS at room temperature, washed 4× and blocked for 1 h at 37° C. in 2% BSA containing blocking buffer. Refolded HLA-A*02:01/MLA-001 monomers served as standards, covering the range of 15-500 ng/ml. Peptide-MHC monomers of the UV-exchange reaction were diluted 100 fold in blocking buffer. Samples were incubated for 1 h at 37° C., washed four times, incubated with 2 ug/ml HRP conjugated anti-β2m for 1 h at 37° C., washed again and detected with TMB solution that is stopped with […]. Absorption was measured at 450 nm. Candidate peptides that show a high exchange yield (preferably higher than 50%, most preferred higher than 75%) are generally preferred for a generation and production of antibodies or fragments thereof, and/or T cell receptors or fragments thereof, as they show sufficient avidity to the MHC molecules and prevent dissociation of the MHC complexes.
Table 11: MHC class I binding scores. Binding of HLA-class I restricted peptides to HLA-A*02:01 was ranged by peptide exchange yield: ≥10%=+; ≥20%=++; ≥50=+++; ≥75%=++++

Peptide Exchange (MHC class I binding score, peptide exchange yield) | Substance
“+++” (>50 = +++) | 361 (ILQEFESKL; listed as Homo sapiens) [compound 361]
“+++” (>50 = +++) | 267 (TLLDWQDSL; listed as Homo sapiens) [compound 267]
“+++” (>50 = +++) | 305 (LLFPQIEGIKI; listed as Homo sapiens) [compound 305]
“++++” (>75% = ++++) | 285 (GVATAGCVNEV; listed as Homo sapiens) [compound 285]
“+++” (>50 = +++) | 163 (SQLDISEPYKV; listed as Homo sapiens) [compound 163]
“+++” (>50 = +++) | 238 (GLVETELQL; listed as Homo sapiens) [compound 238]
“+++” (>50 = +++) | 164 (SVHKGFAFV; listed as Homo sapiens) [compound 164]
“+++” (>50 = +++) | 254 (QLIPKLIFL; listed as Homo sapiens) [compound 254]
“+++” (>50 = +++) | 79 (GLQAKIQEA; listed as Homo sapiens) [compound 79]
“+++” (>50 = +++) | 258 (RLDYITAEI; listed as Homo sapiens) [compound 258]
“+++” (>50 = +++) | 251 (LLYDNVPGA; listed as Homo sapiens) [compound 251]
“+++” (>50 = +++) | 209 (ILQAELPSL; listed as Homo sapiens) [compound 209]
“+++” (>50 = +++) | 324 (SLYSALQQA; listed as Homo sapiens) [compound 324]
“++++” (>75% = ++++) | 336 (YMAVTTQEV; listed as Homo sapiens) [compound 336]
“++++” (>75% = ++++) | 340 (KLLEEICNL; listed as Homo sapiens) [compound 340]
“++++” (>75% = ++++) | 85 (HLMLHTAAL; listed as Homo sapiens) [compound 85]
“+++” (>50 = +++) | 351 (ALSEKLARL; listed as Homo sapiens) [compound 351]
“+++” (>50 = +++) | 286 (FLLEDLSQKL; listed as Homo sapiens) [compound 286]
“+++” (>50 = +++) | 125 (LLLEIGEVGKLFV; listed as Homo sapiens) [compound 125]
“++++” (>75% = ++++) | 168 (YLLDQSFVM; listed as Homo sapiens) [compound 168]

Peptide Exchange (MHC class I binding score, peptide exchange yield) | Substance
“+++” (>50 = +++) | 175 (FTVPRVVAV; listed as Homo sapiens) [compound 175]
“++” (>20% = ++) | 356 (FLHDHQAEL; listed as Homo sapiens) [compound 356]
“+++” (>50 = +++) | 89 (ILDFGTFQL; listed as Homo sapiens) [compound 89]
“+++” (>50 = +++) | 205 (GLSQANFTL; listed as Homo sapiens) [compound 205]
“+++” (>50 = +++) | 145 (SALDTITTV; listed as Homo sapiens) [compound 145]
“+++” (>50 = +++) | 119 (VLPAEFFEV; listed as Homo sapiens) [compound 119]
“+++” (>50 = +++) | 226 (AMNISVPQV; listed as Homo sapiens) [compound 226]
“+++” (>50 = +++) | 377 (VVDGTCVAV; listed as Homo sapiens) [compound 377]
“+++” (>50 = +++) | 41 (FLDPSLDPLL; listed as Homo sapiens) [compound 41]
“+++” (>50 = +++) | 301 (AASPIITLV; listed as Homo sapiens) [compound 301]
“+++” (>50 = +++) | 344 (VLAFENPQV; listed as Homo sapiens) [compound 344]
“+” (>10% = +) | 131 (LQALEVLKI; listed as Homo sapiens) [compound 131]
“+++” (>50 = +++) | 34 (YLPYIFPNI; listed as Homo sapiens) [compound 34]
“++” (>20% = ++) | 75 (GLSIFAQDLRL; listed as Homo sapiens) [compound 75]
“++++” (>75% = ++++) | 229 (FLLNLQNCHL; listed as Homo sapiens) [compound 229]
“+++” (>50 = +++) | 150 (SLFDQPLSII; listed as Homo sapiens) [compound 150]
“+++” (>50 = +++) | 364 (KMDWIFHTI; listed as Homo sapiens) [compound 364]
“+++” (>50 = +++) | 293 (ALDIMIPMV; listed as Homo sapiens) [compound 293]
“++++” (>75% = ++++) | 37 (FIMEGGAMVL; listed as Homo sapiens) [compound 37]
“+++” (>50 = +++) | 53 (FLWQHVELVL; listed as Homo sapiens) [compound 53]

Peptide Exchange (MHC class I binding score, peptide exchange yield) | Substance
“+++” (>50 = +++) | 160 (SLSFLVPSL; listed as Homo sapiens) [compound 160]
“+++” (>50 = +++) | 255 (YLFEEAISM; listed as Homo sapiens) [compound 255]
“+++” (>50 = +++) | 220 (ALPEILFAKV; listed as Homo sapiens) [compound 220]
“+++” (>50 = +++) | 38 (FIMEGGAMV; listed as Homo sapiens) [compound 38]
“+++” (>50 = +++) | 172 (TLYDMLASI; listed as Homo sapiens) [compound 172]
“+++” (>50 = +++) | 228 (FLGGLSPGV; listed as Homo sapiens) [compound 228]
“+++” (>50 = +++) | 295 (ALLQKLQQL; listed as Homo sapiens) [compound 295]
“+++” (>50 = +++) | 250 (LLVQEPDGLMV; listed as Homo sapiens) [compound 250]
“+++” (>50 = +++) | 155 (SLMLEVPAL; listed as Homo sapiens) [compound 155]
“++” (>20% = ++) | 74 (GLLRASFLL; listed as Homo sapiens) [compound 74]
“+++” (>50 = +++) | 298 (IILPVEVEV; listed as Homo sapiens) [compound 298]
“+++” (>50 = +++) | 22 (ALWDPVIEL; listed as Homo sapiens) [compound 22]
“+++” (>50 = +++) | 219 (ALLNLLESA; listed as Homo sapiens) [compound 219]
“+++” (>50 = +++) | 288 (GLAESTGLLAV; listed as Homo sapiens) [compound 288]
“+++” (>50 = +++) | 325 (TLENGVPCV; listed as Homo sapiens) [compound 325]
“+++” (>50 = +++) | 94 (ILFPLRFTL; listed as Homo sapiens) [compound 94]
“+++” (>50 = +++) | 280 (YTLDSLYWSV; listed as Homo sapiens) [compound 280]
“++” (>20% = ++) | 337 (YMYEKESEL; listed as Homo sapiens) [compound 337]
“++” (>20% = ++) | 97 (LLFATQITL; listed as Homo sapiens) [compound 97]
“+++” (>50 = +++) | 82 (GLQSGVDIGV; listed as Homo sapiens) [compound 82]
